From the nanobody polyreactivity screen of Harvey et al. (2022)

Test: yeast display, Sf9 membrane polyspecificity reagent, FACS + sequencing; frameworks hold sequencing errors
Procedure, shortened: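 Sorting gates, low and high (top ~1%), were placed on anti-HA fluorescence to track expression and on streptavidin fluorescence to track reagent binding. A clone's polyreactivity label is taken from the gate it came out of. The reagent was 10% biotinylated, detergent-solubilized Sf9 membrane, applied for 1 hour at 4 °C to galactose-induced yeast display cells.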

Sequence | polyreactivity (PSR sort gate)
QVQLVESGGGLVQAGGSLRLSCAASGRTFRINAMGWYRQAPGKERELVAAITRGDTNYADSVKGRFTISRDNAKNTVYLQMNSLKPEDTAVYYCNADLSVRYPVFRELDYWGQGTQVTVSS | low polyreactivity
QVQLVESGGGLVQAGGTLRLSCAASGPILSRNAMAWYRQAPGKERELVAAISRSGGSTYYADSVKGRFTISRDNAKNTVYFQMNSLKPEDTAVYYSATRYMGRLDYWGQGTQVTVSS | high polyreactivity
QVQLVESGGGLFQAGGSLRLSCAASGRTFRYYVMGWYRQAPGKERELVAAISKSGASTYYADSVKGRFTISRDNAKYTVYSQMNSLKPEDTAVYYCAAGGVYSIYRTSRVGYDYWGQGTQVTVSS | high polyreactivity
QVQLVESGGGLVQAGGSLRLSCAASGGTFFAYAMGWYRQAPGERELVAAISWSGDSTYYADSVKGRFTISRDNAKNTVYLQMNSLKPEDTAVYYCAADYGFEYYYWGQGTQVTVSS | high polyreactivity
QVQLVESGGGLVQAGGSLRLSCAASGRIFGSYTMGWYRQAPGKERELVAAISWSGGNTYYADSVKGRFTISRDNAKNTVYLLMNSQKPEDTAVYYCNALYYRPPKWYGYWGQGTQVTVSS | high polyreactivity
QVQLVESGGGLVQAGGSLRLSCAASGFIFRRYAMGWYRQAPGKERELVAAISYNVVSTYYADSVKGRFTISRDNAKNTVYLQLNSLKPEVTAVYYCNTASSYRSFRYNYWGQGTQVTVSS | high polyreactivity
QVQLVESGGGLVQAGGSLRLSCAASGRIFRYNAMGWYRQAPGKEREFVAAITQSGGSTYYADSVKGRFTISRDNAKNTVYLQMNRLKPEDTAVYYSAADRFYWTYLNYQFLTDYWGQGTQVNVSS | high polyreactivity
QVQLVESGGGLVQAGGSLRLSCAASGRIFRSYAMGWYRQAPGKERELVAAISSGGSTNYADSVKGRFTISRDNAKNTVYLQMNSLKPEDTAVYYCAASYLYEWSRFVYDGLYYWGQGTQVTVSS | low polyreactivity
QVQLVESVGGLVQAGGSLRLSSAASGFTFKYYAMVWYRQAPGKERELVAAISWSGTRTYYADSVKGRVTISRDNAKYTVYLQMNSLKPEDTAVYYCDADFNGRYDYWGQGTQVTVSS | high polyreactivity
QVQHVESGGGLVQAVGSLRLSCAASGIIFPRTAMGWYGQAPGKERELVAGISRSGGSTSYADSVKGRFTISRDNAKNTVYLQMNSRKPEDTAVYYCATRGHPFKKSYGSWGQGTQVTVSS | high polyreactivity
QVQLVESGGGLVQAGGSLSISCAASGRTFPEYGMGWYRQAPGKDREFVAAISTRGGSTYYANSVKGRFTISGDNAKNTVYLQMNSLKPEDTAVYYCAKVYDRSGGDYWGQGTQVTVSS | low polyreactivity
QVQLVESGGGLVQAGGSLRLSCAASGITFDYYAMGWYRQAPGKERELVAAISWGGGSTYYADSVKGRFTISRDNAKNTVYLQMNSLKQEDTAVYYCAAVIVYSPSSYVRPGDYWGQGTQVTVSS | low polyreactivity
QVQLVESGGGLVQAGGSLRLSCAASGFIFSKYAMGWYRQAPGKERELVAAITRSGGRTYYADSVKGRFTISRDNAKNTVYLQMNSLKPEDSAVYYCAASWLYFGRDYWGQGTQVPVSS | high polyreactivity
QVQLVESGGGLVQAGCSLRLSCAASGFTFYPYAMGWYRQAPGKERELVAAITRGGSTYYADSVKGRFTISRDNEKNTVYLQMNSLTPEDTAVYYCNAYWQGYGYDYWGQGTQVTVSS | low polyreactivity
QVQLVESGGGLVQARGSLRLSSAATGLIILAYAMGWYRQAPGKERELVAAISTSGSTYYADSVKGRFTISRDNAKNTVYLQMNSLKPEDTAVYYCAAYYRWSVTYYDWGQGTQGTVSS | high polyreactivity
QVQLVESGGGLVQTGGSLRLICAASGRTFAVNDMGWYRQARGKERELVAAITWRGDSTYYADSVKGRFTISRDNAKNTVYLQMISLKPEDTAVYYCNAYYDGDWRYTSLETGEHWGQGTQVTVSS | low polyreactivity
QVQLVESGGGIVQAGGSLRLICAASGSNFNRYAMGWYRQAPGKERQLVARITNRSGNTYYADSVKGRFTISRDIAKNTVYLQMTSLKPEDTAVYYCAATKSLGRYIMEYWGLGTQVTVSS | low polyreactivity
QVQLVESGGGLVQAGGSLRLSCAASGFTFARYAMGWYRQAPGKERELVAAITYSGGRTYYAVSVKGRFTISRDNAKNTVYLQMNSLKPEDTAVYYCAVKHSSPGRYYYWGQGTQVTVSS | high polyreactivity
QVQLVESGGGLVQAGGSLRLSCAASGSTFWYYAMGWYRQAPGKEWEFVAAIKWSGGRTDYADSVKGRFTISRDIAKNTVYLQMNSLKAEDTAVYYFAADYSFRSFPIDANVLGYEYWGQGTQVTVSS | high polyreactivity
QVQLVESGGGLVQAGGSLRISCAASGRTGKNAMVWYRQARGNERELVAASRYNGGSTYYADSVKGRFTISRDNANNTVYLQKNIMKPEYTAVYYCAAAFRRHNGSAFNYWGHGTQVTVSS | high polyreactivity
QVQLVESGGGLVQAGGSLRLSSAASGSIFSIYAMGWYRQAPGKERELGAAITWSGGSTYYADSVKGRFTISRDNAKNTVYFQMNSLKPEDTAVYYCAAEIWFYYGGRKQRGGYWGQGTQVTVSS | high polyreactivity
QVQLVESGGGIVQAGGSLRLSCAASGFTFWYYAMGWYRQAPGKERELVAVINTSGGSTYADSVKGRFTISRDNAKNTVYLQMNSLKPEDTAVYYCNKDFIYGYDAASYRPEYDYWGQGTQVTVSS | low polyreactivity

Sequence | polyreactivity (PSR sort gate)
QVQLLESGGGLVQAGGSLRLSCAASGFNFYRYAMGWYRQAPGKERELVAAIRKSGGSTYYADSVKGRFTISRDNAKNTVYCQMNSLKPEDTAVSYCAKRYATDGFGYWGQGTQVSVSS | high polyreactivity
QDQLVDSGGGLVQAGGSLRLSSAASGFSYGGYAMGWYRQAPGKERELVAAISSGGGTTYADSVKGRFTISRDNAKYTVYLQMNSLKPEDTAVYYCAAVTRDYRNDRRRQRCYYWGQGTQVTVSS | high polyreactivity
QVQLVESGGGLLQAGGSLRLSCAASGSIFRRNAMGWYRQAPGKERELVAAITTRGSRTTYADSVKGRFTISRDNAKNTVYLQMNSLKPEDTAVYYCAARQHFSYSFHVAYDYWGQGTQVTVSS | high polyreactivity
QVQLVESGGGLVQAGGSLRLSCAASGRIFVIYAMGWYRQAPGKERELVASIRSSSTYYADSVKGRFTISRDNAKNTVYLQMNSLKPEDTAVYYCAAVAEYRGYDYWGQGTQVTVSS | low polyreactivity
QVQLVESGGGLVQEGGSLRLSCAASGRTFGYYAMGWYRQAPGKERELVAAITRNGGRTYYADSVKGRFTISRDNAKNTVYLQMNSLKPEDTAVYYCAKDQYKPEAFYYWGQGTQVTVSS | high polyreactivity
QVQLVESGGGLVQAGGSLRLSCAASGYTFRYAMGWYRQAPGKERELVAAISSRGSSTYYADSVKGRFTISRDNAKNTVYLQMNSLKPEDTAVYYCAAKHFVKGDYWGQGTQVTVSS | high polyreactivity
QVQLVESGGGLVQAGGSLRLSCAASGFTFGRYAMGWYIQAPGKERELVAAINWSGTSTYYADSVKGRFTISRDNSKNTVYLQLNILKPEDTAVYYCAVRESGYHTTLYYWGQGTQVTVSS | high polyreactivity
QDQLVESGGGLVQAGGSLRLSCAASGSIFLIYAMGGYRQAPGKERELVAAITWGGGSTYYADSVKGRFTISRDNAKNTVYLQMTSLKPVDTAVYYCAAYSYSSSFGYRYDYWGQGTQVTVSS | high polyreactivity
QVQLVESGAGLVQARGSLRLSCAPSGRNFTYYAMGWYRQAPGTETELVAAISWSGGRTYYADSVKGRFTISRDNAKNTVYLKMNSLKPEDTAVYYCAADYYAFKFGRFDYWGQGTQVTVSS | high polyreactivity
QVQLVESGGGLVQAGGSLRLSCAASGFTFYRYDMGWYRQAPGKERELVAAITNNGGNTYYADSVKGRFTISRDNAKNTVYLQMNSLKPEDTAVYYCATKRYYWRGYWGQGTQVTVSS | high polyreactivity
QVQLVESVVGLVQARVSLRLSCASSGFIFRFYTMGWYIQPPGKESEFVPAISWSGTSTYYADSVKGRFTISRDNAKNTVYLQMNSLKPEDTAVYYCAAGYKWKGTVWIMDYWGQGTQVTVSS | high polyreactivity
QVQLVESGGGLVQAGGSLRLSCAASGRTFSRYAMGWYRQSPGKERELVAAITSGGGSTYYADSVKGRFTISRDNAKNTVYLQMNSLKPEDTAVYYCAVRSAPIVYVYVASWWSLYDYWGQGTQVTVSS | low polyreactivity
QVQLVESGGGLVQAGGSLRLSCAASGRTLKWYAMGWDRQAPGKERELVAAISWSGGSTYYADSVKGRFTISRDNAKNTVYLQMNSLKPEDTSVYYCAVAVTSYSSKKLYYWGQGTQVTVSS | low polyreactivity
QVQLVESGGGLVQAGGSLRLSCAASGRTYVNTMGWYRQAPGKERELVAAISWSGGRTRYADSVKGRFTISRDNAKNTVYLQMNSLKPEDTAVYYCAKRTYSRKFRGAYNYWGQGTQVTVSS | high polyreactivity
QVQLVESGGGLVQAGGSLRLSCAASGNIFNTNARGWYRQAPGKDTELVAAISWNTGSTYADSVKGRFTISRDNAKKTVDLPMNSLKPEDTAVYYCAADRSHAYYRKNRVDYWGQGTQVTVSS | low polyreactivity
QVQLVESGGGLVQAGGSLRLSCAASGRIISSYAMVWYRQAPGKETELVAAISWDGGSTYYADSVKGRFTISRDNANNTVYLQMNSLKPEDTAVYYCATDATRPWYDYWGQGTQVTVSS | low polyreactivity
QVQLVESGGGLVQAGGSLRLSCAASGSIFRSYAMGWYRQAPGKERELVAAISRRGGSTYYADSVKGRFTISRDNVKNTVYLQMNSLKPEDTAVYYCAADRTGPYDYWGQGTQVTVSS | high polyreactivity
QVQLVESGGGLVQAGGSLRLSCAASGSIFDYNAMGWNRQAPGKDRELVAAISSGGSTYYADSVKGRFTISRDNAKNTVYLQMNSLKPEDTAVYYCAVKFWMVIQFDYWGQGTQVTVSS | low polyreactivity
QVQLVESGGCLVQAGGSLRLSCAASGRTFIGYAMGWYRQAPGKERELVAAISSTGGSTYYADSVKGRFTISRDNAKNTVYLQMNSLKPEDTAVYYCATDAARPPRTPDISDVSNFDYWGQGTQVTVSS | low polyreactivity
QVQLVESGGGLVQAGGSLRLSCAASGRIFGRYAMGWYRQAPGKERELVAAISRRGGTTYYADSVKGRFTISRDNAKNTVYLQMNSLKPEDTAVYSSNADTYGYGFDYWGQGTQVTVSS | high polyreactivity
QVQLVESGGGVVQAGGSLRLSCAASGRISDVYVMGWYRQAPGKERELVAAITWSGGDTYYADSVKGRFTISRDNAKNTVYLQMNSLKPEDTAVYYCNADTGKWGGNGWYEFDYWGQGTQVTVSS | low polyreactivity
